B3: His-tagged PrgX (natural protein, Enterococcus faecalis (plasmid pCF10), UniProt Q04114 1-317, looked up)
chain: MFKIGSVLKQIRQELNYHQIDLYSGIMSKSVYIKVEADSRPISVEELSKFSERLGVNFFEILNRAGMNTKSVNETGKEKLLISKIFTNPDLFDKNFQRIEPKRLTSLQYFSIYLGYISIAHHYNIEVPTFNKTITSDLKHLYDKRTTFFGIDYEIVSNLLNVLPYEEVSSIIKPMYPIVDSFGKDYDLTIQTVLKNALTISIMNRNLKEAQYYINQFEHLKTIKNISINGYYDLEINYLKQIYQFLTDKNIDSYLNAVNIINIFKIIGKEDIHRSLVEELTKISAKEKFTPPKEVTMYYENYVAIENNPIPEIKEQS
notes: PrgX, master transcription regulator and sex pheromone receptor encoded by the Enterococcus faecalis plasmid pCF10; also called HisPrgX; Apo-PrgX

Tests used:
His-tagged PrgX = biological target: B3; assay: SPR; details: both partners purified
[1] = biological target: the molecule itself; assay: SEC; Superdex 200 Hiload 16/600, 20 mmol/L Tris-HCl pH 8.0, 300 mmol/L NaCl; affinity purified HisPrgX, HisPrgX-C or HisPrgX-I loaded; calibrated with gel-filtration standards; no DNA
[2] = tested on: LT DNA (XBS1 and XBS2 operator sites), P Q promoter region; format: binding, Enterococcus faecalis (plasmid pCF10); details: for supershift of LT DNA by purified tetramers: SEC-purified PrgX-C or PrgX-I tetramers, LT probe containing both XBSs
Excerpt: The LT DNA template containing XBS1 and XBS2 sites (LT DNA, pCF10 sequence from nt 8029 to nt8185 (Hirt et al., 2005)) was PCR amplified from pCF10 using primers as described in. The XBS1 DNA template only has XBS1 site (pCF10 sequence 8029–8131nt) was made by annealing oligos ‐129/‐47‐F (5′[…] 3′) and −129/−47R (5′[…] 3′) to obtain double‐stranded DNA. The XBS2 DNA template only has the XBS2 site (pCF10 sequence from 8109 to 8290; −66 to +114 relative to the prgQ transcription initiation site), and was PCR amplified from pCF10 using primers as described in Caserta et al., 2012. In DNA templates with 5‐bp or 10‐bp insertions, sequence GTACC or […] was inserted between XBS1 and XBS2 sites and at a position of 6‐bp after the XBS1 site. DNA probes were labeled at the 3′‐ends with DIG‐11‐ddUTP using the DIG Gel Shift kit (Roche) by following the manufacturer's instructions. EMSA assays were performed in 20 μl reactions: DIG‐labeled DNA, purified proteins, 1 μg of poly‐[d(A‐T)], 0.1 μg of poly‐L‐lysine, 1 × reaction buffer (20 mmol L^−1 Tris‐HCl, pH 7.9, 0.1 mol L^−1 NaCl, 0.1 mmol L^−1 EDTA, 10% glycerol, 0.01 mol L^−1 MgCl2). The reactions were incubated at room temperature for 15 min and loaded onto 5% polyacrylamide gels in 1 × TBE buffer (Tris, Borate, EDTA, pH 7.9). After electrophoresis at 100 V for 1.5 h, the DNA–protein complexes and DNA probes were electrotransferred onto a nylon membrane (Roche) at 6 V for 2 h using the GENIE electrophoretic blotter (Idea Scientific). DIG‐labeled DNA fragments were visualized by an enzyme immunoassay (DIG Gel Shift Kit, Roche) following the manufacturer's instructions. […] For the experiments reported here the powdered form of the peptides were initially solubilized in pure DMF at 0.5 mg/ml, and then diluted 10‐fold in KPBS for use as a working stock solution, which was diluted into the EMSA reactions to a final peptide concentration of 40 nmol L^−1.
EMSA assays were performed using 8 fmol of digoxigenin‐labeled LT DNA probes with increasing amounts of PrgX protein. PrgX was preincubated for 5‐min at room temperature with 40 nmol L^−1 of C (a) or I (b) before adding LT DNA. PrgX concentrations: lanes 2 and 6: 38 nmol L^−1; lanes 3 and 7: 76 nmol L^−1; lanes 4 and 8: 190 nmol L^−1; lanes 5 and 9: 568 nmol L^−1. (c) Cartoon showing the predicted products formed by binding PrgX to LT DNA.

PrgX = biological target: T1, PrgX (Enterococcus faecalis (plasmid pCF10), UniProt Q04114 1-317); assay: EMSA; apo (DMF); single shifted band; EMSA: 20 mM Tris-HCl pH 7.9, 0.1 M NaCl, 0.1 mM EDTA, 10% glycerol, 10 mM MgCl2, 1 ug poly-[d(A-T)], 0.1 ug poly-L-lysine, 20 ul, room temperature 15 min, 8 fmol DIG-labelled probe; details: protein: recombinant; tags: GST removed with PreScission (pGEX6p-1); chain copies: 2; label: 3' DIG-11-ddUTP; blunt
T1 sequence: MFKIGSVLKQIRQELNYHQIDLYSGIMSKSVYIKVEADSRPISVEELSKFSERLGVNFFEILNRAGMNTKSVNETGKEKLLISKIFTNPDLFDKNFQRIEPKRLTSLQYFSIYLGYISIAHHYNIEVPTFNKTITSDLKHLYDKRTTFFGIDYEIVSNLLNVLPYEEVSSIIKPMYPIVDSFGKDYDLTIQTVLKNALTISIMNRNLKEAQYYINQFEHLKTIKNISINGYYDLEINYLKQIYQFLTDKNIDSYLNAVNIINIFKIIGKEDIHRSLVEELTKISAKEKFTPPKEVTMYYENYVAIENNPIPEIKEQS

B1: cCF10 (C, clumping-inducing peptide, sex pheromone) (peptide)
peptide: LVTLVFV
notes: source: synthetic peptide, bought: New England Peptides
In the case of B1, the Kd (His-tagged PrgX) is reported as 0.686 pM and the koff (His-tagged PrgX) is reported as 5.5e-05 s⁻¹.

B2: iCF10 (I, inhibitor peptide) (peptide)
peptide: AITLIFI
notes: as for B1
In the case of B2, the Kd (His-tagged PrgX) is reported as 0.152 pM and the koff (His-tagged PrgX) is reported as 2.09e-05 s⁻¹.

B3 was tested, and the “stoichiometry N” value [1] was 2.

B4: PrgX‐C: PrgX/cCF10 complex (tetramer), purified by nickel affinity and size exclusion chromatography (protein)
chain 1: MFKIGSVLKQIRQELNYHQIDLYSGIMSKSVYIKVEADSRPISVEELSKFSERLGVNFFEILNRAGMNTKSVNETGKEKLLISKIFTNPDLFDKNFQRIEPKRLTSLQYFSIYLGYISIAHHYNIEVPTFNKTITSDLKHLYDKRTTFFGIDYEIVSNLLNVLPYEEVSSIIKPMYPIVDSFGKDYDLTIQTVLKNALTISIMNRNLKEAQYYINQFEHLKTIKNISINGYYDLEINYLKQIYQFLTDKNIDSYLNAVNIINIFKIIGKEDIHRSLVEELTKISAKEKFTPPKEVTMYYENYVAIENNPIPEIKEQS
chain 2: LVTLVFV
modifications: left off: His tag, end not stated, kept
In the case of B4, the “relative protein concentration for supershift / singly shifted probe” value [2] is reported as “slightly more of the singly shifted probe is detected relative to PrgX/I complexes at equivalent protein concentrations” and the “supershift of LT DNA by purified tetramers” value [2] is reported as “nearly complete supershift to band II at extremely low PrgX concentrations”.

B5: HisPrgX-I complex (complex)
chain 1: MFKIGSVLKQIRQELNYHQIDLYSGIMSKSVYIKVEADSRPISVEELSKFSERLGVNFFEILNRAGMNTKSVNETGKEKLLISKIFTNPDLFDKNFQRIEPKRLTSLQYFSIYLGYISIAHHYNIEVPTFNKTITSDLKHLYDKRTTFFGIDYEIVSNLLNVLPYEEVSSIIKPMYPIVDSFGKDYDLTIQTVLKNALTISIMNRNLKEAQYYINQFEHLKTIKNISINGYYDLEINYLKQIYQFLTDKNIDSYLNAVNIINIFKIIGKEDIHRSLVEELTKISAKEKFTPPKEVTMYYENYVAIENNPIPEIKEQS
chain 2: AITLIFI
notes: copies: 4 +
B5 was tested, and the “stoichiometry N” value [1] was 4.

B6: PrgX‐I: PrgX/iCF10 complex (tetramer), purified by nickel affinity and size exclusion chromatography (protein)
chain 1: MFKIGSVLKQIRQELNYHQIDLYSGIMSKSVYIKVEADSRPISVEELSKFSERLGVNFFEILNRAGMNTKSVNETGKEKLLISKIFTNPDLFDKNFQRIEPKRLTSLQYFSIYLGYISIAHHYNIEVPTFNKTITSDLKHLYDKRTTFFGIDYEIVSNLLNVLPYEEVSSIIKPMYPIVDSFGKDYDLTIQTVLKNALTISIMNRNLKEAQYYINQFEHLKTIKNISINGYYDLEINYLKQIYQFLTDKNIDSYLNAVNIINIFKIIGKEDIHRSLVEELTKISAKEKFTPPKEVTMYYENYVAIENNPIPEIKEQS
chain 2: AITLIFI
modifications: left off: His tag, end not stated, kept
In the case of B6, the “relative protein concentration for supershift / singly shifted probe” value [2] is reported as “complete supershifting at slightly lower protein concentrations than PrgX/C” and the “supershift of LT DNA by purified tetramers” value [2] is reported as “nearly complete supershift to band II at extremely low PrgX concentrations”.

B7: HisPrgX-C complex (complex)
chain 1: MFKIGSVLKQIRQELNYHQIDLYSGIMSKSVYIKVEADSRPISVEELSKFSERLGVNFFEILNRAGMNTKSVNETGKEKLLISKIFTNPDLFDKNFQRIEPKRLTSLQYFSIYLGYISIAHHYNIEVPTFNKTITSDLKHLYDKRTTFFGIDYEIVSNLLNVLPYEEVSSIIKPMYPIVDSFGKDYDLTIQTVLKNALTISIMNRNLKEAQYYINQFEHLKTIKNISINGYYDLEINYLKQIYQFLTDKNIDSYLNAVNIINIFKIIGKEDIHRSLVEELTKISAKEKFTPPKEVTMYYENYVAIENNPIPEIKEQS
chain 2: LVTLVFV
notes: copies: 4 +
B7 was tested, and the “stoichiometry N” value [1] was 4.

B8: XBS1 DNA (dsDNA)
DNA 1: TGTTAATATTTTAATTTTAGGTATTGAATACGACACTCGAAGATGTGTTTATTAAGCTATATCCCTTTTTTTTAAAAAAAAATA
DNA 2: TATTTTTTTTTAAAAAAAAGGGATATAGCTTAATAAACACATCTTCGAGTGTCGTATTCAATACCTAAAATTAAAATATTAACA
B8: binds (PrgX).
